In paper PMC10967792:

How the values were obtained:
[1] = target: hCCR7-mNeongreen (CCR7 C-terminally tagged with mNeonGreen) (human) (UniProt P32248)
[2] = target: human CC chemokine receptor 7 (hCCR7), stably expressed (human) (UniProt P32248)

Sequence | pEC50 of β-arrestin1 (Arrβ1) recruitment to CCR7 (NanoBRET), CHO-K1 cells [1] | pEC50 of β-arrestin1 (Arrβ1) recruitment to CCR7 (NanoBRET), HEK293A cells [1] | pEC50 of β-arrestin1 (Arrβ1) recruitment to CCR7 (NanoBRET), U87 cells [1] | pEC50 of β-arrestin2 (Arrβ2) recruitment to CCR7 (NanoBRET), CHO-K1 cells [1] | pEC50 of β-arrestin2 (Arrβ2) recruitment to CCR7 (NanoBRET), HEK293A cells [1] | pEC50 of β-arrestin2 (Arrβ2) recruitment to CCR7 (NanoBRET), U87 cells [1] | pEC50 of Gα12 activation (NanoBRET, G protein dissociation), HEK293A cells expressing CCR7 [2] | pEC50 of Gα12 activation (NanoBRET, G protein dissociation), U87 cells expressing CCR7 [2] | pEC50 of Gα13 activation (NanoBRET, G protein dissociation), CHO-K1 cells expressing CCR7 [2] | pEC50 of Gα13 activation (NanoBRET, G protein dissociation), U87 cells expressing CCR7 [2] | pEC50 of Gα15 activation (NanoBRET, G protein dissociation), CHO-K1 cells expressing CCR7 [2] | pEC50 of Gα15 activation (NanoBRET, G protein dissociation), HEK293A cells expressing CCR7 [2] | pEC50 of Gαi1 activation (NanoBRET, G protein dissociation), CHO-K1 cells expressing CCR7 [2] | pEC50 of Gαi1 activation (NanoBRET, G protein dissociation), HEK293A cells expressing CCR7 [2] | pEC50 of Gαi1 activation (NanoBRET, G protein dissociation), U87 cells expressing CCR7 [2] | pEC50 of Gαi2 activation (NanoBRET, G protein dissociation), CHO-K1 cells expressing CCR7 [2] | pEC50 of Gαi2 activation (NanoBRET, G protein dissociation), HEK293A cells expressing CCR7 [2] | pEC50 of Gαi2 activation (NanoBRET, G protein dissociation), U87 cells expressing CCR7 [2] | pEC50 of Gαi3 activation (NanoBRET, G protein dissociation), CHO-K1 cells expressing CCR7 [2] | pEC50 of Gαi3 activation (NanoBRET, G protein dissociation), HEK293A cells expressing CCR7 [2] | further results
CC chemokine ligand 19 (CCL19) (from UniProt Q99731 22-98) | 7.92 -log10(M) | 7.46 -log10(M) | 7.86 -log10(M) | 8.11 -log10(M) | 7.57 -log10(M) | 7.86 -log10(M) | 7.44 -log10(M) | 7.81 -log10(M) | 8.87 -log10(M) | 8.77 -log10(M) | 8.91 -log10(M) | 7.8 -log10(M) | 8.54 -log10(M) | 8.63 -log10(M) | 8.28 -log10(M) | 8.69 -log10(M) | 9.03 -log10(M) | 8.56 -log10(M) | 8.84 -log10(M) | 9.61 -log10(M) | pEC50 of Gαi3 activation (NanoBRET, G protein dissociation), U87 cells expressing CCR7 [2]: 8.87 -log10(M); pEC50 of GαoA activation (NanoBRET, G protein dissociation), CHO-K1 cells expressing CCR7 [2]: 9.37 -log10(M); pEC50 of GαoA activation (NanoBRET, G protein dissociation), HEK293A cells expressing CCR7 [2]: 8.3 -log10(M); pEC50 of GαoA activation (NanoBRET, G protein dissociation), U87 cells expressing CCR7 [2]: 8.59 -log10(M); pEC50 of GαoB activation (NanoBRET, G protein dissociation), CHO-K1 cells expressing CCR7 [2]: 8.96 -log10(M); pEC50 of GαoB activation (NanoBRET, G protein dissociation), HEK293A cells expressing CCR7 [2]: 8.85 -log10(M); pEC50 of GαoB activation (NanoBRET, G protein dissociation), U87 cells expressing CCR7 [2]: 8.8 -log10(M); pEC50 of Gαq activation (NanoBRET, G protein dissociation), CHO-K1 cells expressing CCR7 [2]: 8.77 -log10(M); pEC50 of Gαq activation (NanoBRET, G protein dissociation), U87 cells expressing CCR7 [2]: 8.41 -log10(M); pEC50 of GαsL activation (NanoBRET, G protein dissociation), CHO-K1 cells expressing CCR7 [2]: 8.97 -log10(M); pEC50 of GαsL activation (NanoBRET, G protein dissociation), HEK293A cells expressing CCR7 [2]: 7.49 -log10(M); pEC50 of GαsL activation (NanoBRET, G protein dissociation), U87 cells expressing CCR7 [2]: 8.95 -log10(M); pEC50 of GαsS activation (NanoBRET, G protein dissociation), CHO-K1 cells expressing CCR7 [2]: 8.58 -log10(M); pEC50 of GαsS activation (NanoBRET, G protein dissociation), U87 cells expressing CCR7 [2]: 8.65 -log10(M)
CC chemokine ligand 21 (CCL21) (from UniProt O00585 24-134) | 7.52 -log10(M) | 7.15 -log10(M) | 6.9 -log10(M) | 7.69 -log10(M) | 7.02 -log10(M) | 7.01 -log10(M) | 6.79 -log10(M) | 7.5 -log10(M) | 8.53 -log10(M) | 8.7 -log10(M) | 7.56 -log10(M) | 6.74 -log10(M) | 8.37 -log10(M) | 8.47 -log10(M) | 8.02 -log10(M) | 8.91 -log10(M) | 8.76 -log10(M) | 8.27 -log10(M) | 8.84 -log10(M) | 9.33 -log10(M) | pEC50 of Gα12 activation (NanoBRET, G protein dissociation), CHO-K1 cells expressing CCR7 [2]: 7.94 -log10(M); pEC50 of Gαi3 activation (NanoBRET, G protein dissociation), U87 cells expressing CCR7 [2]: 8.6 -log10(M); pEC50 of GαoA activation (NanoBRET, G protein dissociation), CHO-K1 cells expressing CCR7 [2]: 9.27 -log10(M); pEC50 of GαoA activation (NanoBRET, G protein dissociation), HEK293A cells expressing CCR7 [2]: 7.97 -log10(M); pEC50 of GαoA activation (NanoBRET, G protein dissociation), U87 cells expressing CCR7 [2]: 8.33 -log10(M); pEC50 of GαoB activation (NanoBRET, G protein dissociation), CHO-K1 cells expressing CCR7 [2]: 8.97 -log10(M); pEC50 of GαoB activation (NanoBRET, G protein dissociation), HEK293A cells expressing CCR7 [2]: 8.34 -log10(M); pEC50 of GαoB activation (NanoBRET, G protein dissociation), U87 cells expressing CCR7 [2]: 8.45 -log10(M); pEC50 of Gαq activation (NanoBRET, G protein dissociation), CHO-K1 cells expressing CCR7 [2]: 8.45 -log10(M); pEC50 of Gαq activation (NanoBRET, G protein dissociation), U87 cells expressing CCR7 [2]: 8.1 -log10(M); pEC50 of GαsL activation (NanoBRET, G protein dissociation), HEK293A cells expressing CCR7 [2]: 6.79 -log10(M); pEC50 of GαsL activation (NanoBRET, G protein dissociation), U87 cells expressing CCR7 [2]: 8.99 -log10(M); pEC50 of GαsS activation (NanoBRET, G protein dissociation), CHO-K1 cells expressing CCR7 [2]: 8.1 -log10(M); pEC50 of GαsS activation (NanoBRET, G protein dissociation), U87 cells expressing CCR7 [2]: 8.39 -log10(M)
